Test results as given in the domain aggregation screens of Martell et al. (2025).

Experiment: soluble fraction after stress (log2 fold change); higher = more stays soluble; pooled small domains, quantitative proteomics
Conditions: stress: 50 degC
Outline: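 Pooled custom libraries of small protein domains were measured in a high-throughput format, with quantitative proteomics as the read-out. Each library was stressed at 50°C. Aggregation propensity is given as the base-two logarithm of the fold change in how much of each protein stays soluble after the stress. Higher values mean a larger share of the protein remains in solution.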

Row | Sequence | soluble fraction (log2)
1 | HMDPIATLTPREREVLSLMAEGRSNGAIAAALVVGDGAVEKHVSNIFQKLELTPAEGDHRRVLAVLRWLE | -0.901
2 | HMAVNSALVQRNWLIGYRIAEEELQGDNRAEYGASIIKKLAKELTAEYGKGYTKTNLYHFYSFYKT | -0.136
3 | HMGVDASVDSKLDLLSQVLDSDQVKEQLPEAVLEQLAQNLDRWRSLHEESELQDDDIAELNRLLGLFGLG | 0.0425
4 | HMAGGVFELTGKVTADAKAGDLVYVKAATGAGTKPVVTTVKTGADVIIGWLKEPVSSASVDQKMQVVLA | 0.147
5 | HMDALKAVYQWVTRTMMKNQTGVMQTLPNRDLIELNTQITAQRLMQAGVDPTTLKNANQVENAVNIIESR | -0.473
6 | HMIGRIKGQLIEKKSDSVVIDVHGIGYVVYVTEKTARSLTLGDQSRDISLYSELLVKEDLLQLVGFI | 0.0137
7 | HMGEKTVPNVIGQKLATAKQLLEKEGLTVGSTSYNKNQADKDTVLSTDPAPGSHLSEGAKVNLTLSSGA | 0.261
8 | HMQGEDEILKIHEALEELAQIDARLVRVVEMRYFVGLSNQEIADSLGVTTRTVERDWEKARTFLFNALHP | -1.4
9 | HMGFSKGKRDLIRMIKLAIRELADDNGRAQIEDVITRLVQEGHSRDEIRLQIDMFLRQGEAMEPKQGIIKL | 0.325
10 | HMNYSIVNVGFNNKSLFLRSAPGYSASRLLLPFATERAFVRETLSNGWSRVIVRGTEGYLPTEYVAD | 0.179
11 | HMLPITPGQKYKFVVKSAEEAAAIIRDKLGEMAQVISVRQVEGEGLARFLKSPKLEIIAQVPVA | -0.132
12 | HMTQSGLTQWEFNMLRQALIEMLGEKPGSVFELARLLPLEQEKNVQALRFLLDHDDQFHLKDEYISFVKRT | -1.92
13 | HMEHETTQLELNAPGQRLDAALALALPDTSRAQIQQWIKQGLVTDQAGTALLQASLKLKSPLNVVLQRPI | 0.178
14 | HMTVDYDKFTKDTVVQHNKFGKGVIIMTSGDGEDKIASIAFQGLGVKRFSLAIAASNLKILGKVNED | -0.133
15 | HMLWTDTKYVTVPDFVGKEPKEIESSYLYNIEYHGEGTKVISQQPAAFSRTIEGGTVRLYLG | 0.0884
16 | HMAFDESLVRSIQELLSELGYSPGKIDGLLGAKTVAAIKAFELEINKDQLTGEPSEELLIALQLAIRSSKM | -1.13
17 | HMKSDEGEIKKIVEEIISKNASVVEDYKKGKEVALQFLVGQGMKATKGSANPELLKKIILENI | 0.506
18 | HMKLHFTINGVHYTWYKQFIRGIQIRELGNIPREDELYLDLPDGWKDDFIEDDEIVDLARPGVEHFISRAK | -1.78
19 | HMSQYVPDPVLNAALVGYLDFRKQAGKPMTDYSIRLLLVDLAKLSGNPQEQAAILDQSTKNNWIGVYALG | -2.87
20 | HMTEDADIERRLTGILASAGWYRSLAVEVKEGIVYLDGATASGNHRDWAGSLAAKTEGVVAVVNRIEVQP | -0.238
21 | HMRLREETRKVDKTGLIQVDGRHYRVPDEYSQKDVQILMDDNSIMVYRKGDFVIELDKETSVYMPH | 0.214
22 | HMGEKPTEITLSNAISVQELAEKLYVSETDIIRTLFLDGIIVNINQVLDLETAVKVGDQLGVTITIVE | -1.2
23 | HMHDLDALTGLSGEARSKVYEEGSVFVAGEMWSAKSDAVIPAGSSIRVVRREGFILVVEKDS | -1.12
24 | HMKARLRRVFQIYYGDAYSIMKALKETFPLQTIVHEPRTNSIVVDTPDEETATKIGDVVSAL | -0.392
25 | HMATTAGIEKYLGSGLIKGIGPIYAKKIVRKFKEDTIRIIDEEPDRLLEVEGIGQKRLEIIKQAWQQQKE | -0.391

Row | Sequence | soluble fraction (log2)
26 | HMTALPPNVSIDSDERRLLEAIGFDPVDMDVLARDGQFSSVDLFRLLVSLELKGLVENQHGAYQRL | -1.31
27 | HMSPFAHHLHELRMRHGIRQNELAELIGYDQTYISALEVGLKGPPTPEFVDKLVEGLALSRTEEAALRSAA | -0.482
28 | HMASATGVVTAASLNVRSGAGTNYSVVNTLAKGTKVTVLNTADGWYEIEATVNNEKITGYVSATYIAMD | 0.222
29 | HMEKYIVEAEEQGKRLDMYISSKDEELTRTSAQRLIEQGDILVNNKKVKVAYKVSEGDIIAVEKQ | 0.0849
30 | HMSSTAIQAMIRRLIDGEDPRKPLSDARLAETLKASGVPVARRTVAKYRESMSIPSSQDRLRI | -0.156
31 | HMPLDYNELRSISPKAARQAILQILAANKGNVSATAKLLGVSRKTVYKAMHKKASGNLDDTSRAPK | -0.851
32 | HMGEKFTFGQIAKAKAYAKTYANDMTSAVKNIEAIATGLSKHPEVADTLKKANENQELNRITKLAG | 0.149
33 | HMNQRQKQLLSILEQQGDWMKGKALATLLAVSDRTIRSDIEKINREVEGSILSHPHKGYLLSVENRQIAET | 0.256
34 | HMGSKDLPFSTFMSEIDKGNITSVDIRGNEIQGTFANGTKFRTYSPNYPNLVEKLNGKGVSITAGPV | 0.215
35 | HMARRKRDIDSDINVKVFEHWLDNLDSASRESFSAFAEETFSPIQVYLYAKFLGYESSIIAVDHWVAVAYP | 0.104
36 | HMFEFFKGIYSISLLKKDGIFFVTFKDENKEAVKHIFPEKPTALELGIKVMEMFEYKERYDGII | -0.227
37 | HMAEAIVMSTAAPVKSSPDPQSKDIFVLHEGTKVAVGDSLGDWREIRIADGNKGWVLVSAIEMI | 0.0979
38 | HMAMMTKQRLIQLIHIARNDLQMDEDTYRQMLQGLTGKASTKGMDTPQLNRVLESMKKKGFRIK | -0.447
39 | HMKNANGYGSITKLKGNRRKPYMVRITVGRDENGFPIRKVLGYYSSKANAVAALSDYNREPYDI | -0.667
40 | HMKTRTVVLKSAGGNKIAVIKIIKEITGLGLVEAKAVADNGGNIKENIPAEEAEAIKTQLTEAGAEVEL | -0.192
41 | HMIITTPYKVTASAINIRSGRGTSYSIIGTVSKGQTVDVYNNSLSKGWVKVKFSGSVGYAYAKYLEK | -0.299
42 | HMLMRSPDFLIGWFQNLVAKRETFNDQVQAKNLIEAGKQHIQGEDFDRLLEVNRRLFSLLPQREQE | 0.215
43 | HMKTVLDSLLRILDSKELDIVVLRHIVGLTLTEIAKEKDMKKGTVFWMYNRAVKKLRLESERMGL | -2.11
44 | HMTNATVGQIKKLARASILYGNSNLSGNRYTYKANTTVTILQNISSNVDKIRVNVTGRVAYIDNSNYSSST | -3.56
45 | HMAQPIPSGADIRAAREAAGMTLRRFAEYIAGPDFSTWSRYETGKPIRVKNISPEVWQRVRKFIAQNKG | -0.0609
46 | HMRSIMAVSNYRHKKILEMVYQRKSVSADELAAEFGVSKITIRRDLDTLAMDKLLERTRGGAISISD | -2.67
47 | HMDSAFVSDIRDAFDEAGVDSYRFFGTHSFKRGGVQLYRLLGVSDQEIKERGHWQTFSAYFAYVQA | 0.218
48 | HMPPSRFNELSMWFQEQLTEAGLKVDSGALKMLIEWLGQDQARLPSIIEVLVSTYGTKKKLTVDEIEPFL | 0.234
49 | HMDAAYVYVIGTRVNQRAGPSTSNAVMGVLSEGTRVETLRDEGQWTQIRSNFGTGWMSSSFLSSVAP | -1.55
50 | HMKTLKHYFASIAHEFGREEAELMLLSVFKTPFEQRLMLFMKDPALTEAQVQQLDNLVRQRKQGVPLPYIL | -0.22

Row | Sequence | soluble fraction (log2)
51 | HMDEALLRATLLDVLVKHHPKIGDKLDVVFALAKAWVSSGSDDDFEVLEKYMERLKPDEALMLASGFSNML | -0.972
52 | HMKDLSMPDVMGSSLNDAKKALTELGIMDITVRYVESGSSEGSIVGMEPPAGSKFAADGKVVLQVSSGS | 0.351
53 | HMNIDEIFLTKNEIYFSFEYQKKSQLDRYSKIISLDHRIDKNTAYAYANKKQFLNFINLNIDYKIIDNSF | -2.65
54 | HMEEMTIRQKRTMIFFIEATKHILQEDGYDHLTIREIAQRAGYNAATLYHYFRDLDELIIYGSVG | -0.238
55 | HMVDSTDLIPLLIKVSREKQGNKKLNWGEWLKIPENIYLKQINENIARKVFEDTNDLIDEAVNYINRKRRN | -0.602
56 | HMDGVPPAGSRIRLTVSTQVGDKEFEGTLVPPAGVDLLTLKLANGYNLSHSIADVREVVLIEEGLQGEEP | -0.0515
57 | HMRSVPNVAGLGMDGAAFQLGKAGFAIGTITPADDPKAVVGSIQRTEPAAGTVADRDTVVNLFQV | 0.0939
58 | HMEGTAAAVALKGLMEQSGVDLREVMAAVESRGYYPKGTPFENYDPAFVSGVLVGAWDQVYKMILDQRPIP | -0.217
59 | HMKTRIQDLRKELGVTQSELADAVDVTRQTIISLEGGRYKASLVLAHKLAQFFHVTIEELFIFD | -2.21
60 | HMTIGLLISKARTNSGLTQAELATRAGTSQAAIARYESDRVSPSVSTLERVLRAAGEELVISSS | -0.0977
61 | HMNGVPDMSPVPEGARNSTLHAWAFGRLKNHPDNETGIREDLFRRGHASGLQDAELDQIWKSIKRTL | 0.0847
62 | HMVGLKWYDTGNKKPPIGTEYKNTELSEALKGHDRKEFTWKELDVLGVNITDKEQYIVVGENYYTQV | -0.197
63 | HMYAPKIETIQVPQDKIREVIGTGGKVIREIVETTGAKIDIGDTGLIKVASSDGEAIRAALDWINSIVAE | 0.117
64 | HMSVPEAAERAIDVAQMRRALGELSPEQQRVLELAYFGGLTRQEIARATGTPLGTVHTRARLGLQNLRARL | -0.299
65 | HMTKLTTDERSVYLHIQNKPGVSASSIREALGYKKSKLTSILAQLLEVHKIIDTEGTGKSLKYIL | -0.0662
66 | HMQPTVEGLMKALETMTFNERTALALHYGLTGRQPMTFMAIGRYLGISDGRAEALVNSAIRKLR | -1.43
67 | HMTAQASDIEKVLQVIETLGFRGHTLPGENRTAIGVTGNRGSIDPAHFENLPGVADAIRVTKPY | 0.0639
68 | HMVLQHHTATKALSYHTSASASAAVKGSFARGDSVQVVQGGSQTADGAKWHKVKVGSSYYYAAAEHLTP | ≥ 0.62
69 | HMAQVSDTGELEGVVDGVLAANAKSVADFQAGKENAFQYLIGQVMKETKGKANPEVVATLLRTKLS | -0.382
70 | HMIRSNLAEQAYAQLKALIHDFQLLPGDRFSENEMGTRLGVSRTPVREALFRLRNEGFLEVESKAGWYVK | -2.38
71 | HMEDPLGDLIGRIAAATGRPVQDIVAEVHRVVTDHFDGNLRVEAAAVILARKYGVAFEDKLSALQRSV | 0.00767
72 | HMAPSLSEYAYEEIKHAIERGVYPPGAKLITQEIADRLGISRTPVVAAVNRLTAEGYADAVPQHGIFVK | 0.0573
73 | HMFTFEDMDKFESLLTTGLTDVQRRIYSLVTHDGKEYDLIAETLGISVEAVRMHMSRARKKIRENYKKID | -2.42
74 | HMETQVKVPNVVGMTQSKAIAKLKESKLDYEVQEQKHDGDKGKVVDQSEAEGTYVDRGTKVIIYVSTGE | -0.088
75 | HMFAQDQLFKKDNSKVDVKILEINTTEIKYKLFTYQDGPTITVAKKDVALIIYQNGVHEVIT | -2.15
